Positions count from the first letter of the chain named. Each block holds one binder with its values, some of them ahead of it.
Key:
[1] = biological target: T1, Human B7-H4 with HisFlag tag (huB7-H4-his) (human, UniProt Q7Z7D3 25-258); assay: SPR Biacore T200, antibody coupled to CM5 chip, series of huB7-H4-his concentrations, 1:1 model
T1 construct: also called HuB7-H4 His protein; huB7-H4-HF
T1 sequence: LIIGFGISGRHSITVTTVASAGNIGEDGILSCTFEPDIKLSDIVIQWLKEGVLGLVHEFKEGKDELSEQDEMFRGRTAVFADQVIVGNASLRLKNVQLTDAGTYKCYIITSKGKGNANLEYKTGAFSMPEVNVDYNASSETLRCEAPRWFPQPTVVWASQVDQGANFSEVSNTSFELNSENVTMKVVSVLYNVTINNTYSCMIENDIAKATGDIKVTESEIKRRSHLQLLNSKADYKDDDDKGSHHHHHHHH
Description: b). A series of concentrations of human huB7-H4-his protein diluted by the same buffer were respectively loaded at the flow rate of 10 μL/min and the chip was regenerated with the regeneration reagent provided in the kit. Antigen-antibody binding kinetics were recorded for 3 minutes and dissociation kinetics were recorded for 10 minutes. The resulting data were analyzed by GE's BIAevaluation Software using 1:1 (Langmuir) binding model.

[2] = biological target: T1, Human B7-H4 with HisFlag tag …; assay: indirect ELISA, plate coated with HuB7-H4 His
Description: The plate was washed with PBST (PBS comprising 0.05% Tween-20, pH 7.4) four times, and then 150 μl/well of 3% bovine serum albumin (BSA) blocking solution diluted in PBST was added, and incubated at room temperature for 1 hour for blocking. After the blocking was finished, the blocking solution was discarded and the plate was washed 4 times with PBST buffer.
The antibodies to be tested were diluted with PBST comprising 3% BSA at a gradient of 10-fold dilution, starting from 1 μM with a total of 10 doses. The dilutions were added into the plate at 100 μl/well, and incubated at room temperature for 1 hour. After the incubation was finished, the plate was washed 4 times with PBST, 100 μl/well of HRP-labeled goat anti-human secondary antibody (Abeam, cat #ab97225) diluted in PBST comprising 3% BSA was added and incubated at room temperature for 1 hour. The plate was washed 4 times with PBST, 100 μl/well TMB chromogenic substrate (Cell Signaling Technology, cat #7004S) was added and incubated at room temperature in darkness for 1 minute, and 100 μl/well of Stop Solution (Cell Signaling Technology, cat #7002S) was added to terminate the reaction. The absorbance was read at 450 nm using a microplate reader (BioTek, model Synergy H1), and the data was analyzed.

[3] = biological target: T1, Human B7-H4 with HisFlag tag …; assay: SPR Biacore T200, antibody coupled to CM5 chip, hu-B7-H4-his in flow, 1:1 model
[4] = biological target: T2, B7-H4 expressed on cells (MX-1 cells; CHO-S cells stably expressing B7-H4) (human, UniProt Q7Z7D3 25-282); assay: flow cytometry (FACS) on MX-1 cells
T2 construct: whole, on cells; also called huB7-H4; antigens expressed by cells
T2 sequence (looked up): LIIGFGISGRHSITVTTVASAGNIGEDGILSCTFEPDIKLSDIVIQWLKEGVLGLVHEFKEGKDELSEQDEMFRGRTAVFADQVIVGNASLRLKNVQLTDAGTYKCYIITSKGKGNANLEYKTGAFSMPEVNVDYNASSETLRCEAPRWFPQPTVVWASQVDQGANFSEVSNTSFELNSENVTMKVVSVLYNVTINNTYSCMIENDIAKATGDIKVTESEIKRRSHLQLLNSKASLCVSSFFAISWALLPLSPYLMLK
Description: The cultured MX-1 cells were collected, cell density was adjusted with PBS pH 7.4, then plated onto a 96-well V-shaped bottom plate with 1×10⁵ cells per well, and centrifuged at 2000 rpm for 5 minutes to remove supernatant. 100 μl of the serially diluted chimeric antibody solution was added (diluted with 0.5% BSA in PBS to obtain a gradient of 3-fold dilutions, starting from 1 μM, with a total of 10 doses) into each well, mixed, and incubated for 1 hour at 4° C. with shaking; the culture was centrifuged at 2000 rpm for 5 minutes to remove the supernatant, and the cells were washed twice with PBS, and 100 μl of FITC-labeled goat anti-human secondary antibody (Abeam, cat #ab97224) diluted with 0.5% BSA in PBS was added into each well, mixed well and incubated for 30 minutes at 4° C. in a shaker. Centrifugation was performed at 2000 rpm for 5 minutes and the supernatant was removed. Cells were washed twice with PBS and resuspended in PBS. The signals were detected using flow cytometer (BECKMANCOULTER, model DxFLEX), and the concentration curve was plotted and the results were analyzed. As indicated in the table and figure, humanized antibodies 2F7, 2F8, 2G6 and 1C9 show positive bindings to MX-1 cells on which B7-H4 was highly expressed.

[5] = biological target: T3, antigen fragment TVASAGNIGEDGILSCAFEP (human); assay: indirect ELISA on antigen fragment, alanine scan
T3 construct: Alanine-scan variant of P12; the entry already carries the alanine; also called P12 alanine mutant (T to A)
T3 peptide: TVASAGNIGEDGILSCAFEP
Description: (§1) The method procedures were the same as described in Example 3 (1): in vitro indirect ELISA binding assay. […] To further confirm the epitope to which the antibody binds, alanine scan was performed on the antigen fragment P12, that is, each single amino acid located in P12 was mutated to alanine respectively.

[6] = biological target: T4, antigen fragment TVASAGNIGEDGILSATFEP (human); assay: indirect ELISA on antigen fragment, alanine scan
T4 construct: Alanine-scan variant of P12; the entry already carries the alanine; also called P12 alanine mutant (C to A)
T4 peptide: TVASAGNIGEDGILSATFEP
Description: as §1

[7] = biological target: T5, antigen fragment TVASAGNIGEDGILSCTAEP (human); assay: indirect ELISA on antigen fragment, alanine scan
T5 construct: Alanine-scan variant of P12; the entry already carries the alanine; also called P12 alanine mutant (F to A)
T5 peptide: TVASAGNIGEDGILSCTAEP
Description: as §1

[8] = biological target: T6, antigen fragment TVASAGNIGEDGILSCTFAP (human); assay: indirect ELISA on antigen fragment, alanine scan
T6 construct: Alanine-scan variant of P12; the entry already carries the alanine; also called P12 alanine mutant (E to A)
T6 peptide: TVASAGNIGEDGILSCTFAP
Description: as §1

[9] = biological target: T7, antigen fragment TVASAGNIGEDGIASCTFEP (human); assay: indirect ELISA on antigen fragment, alanine scan
T7 construct: Alanine-scan variant of P12; the entry already carries the alanine; also called P12 alanine mutant (L to A)
T7 peptide: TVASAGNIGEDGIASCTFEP
Description: as §1

[10] = biological target: T8, antigen fragment TVASAGNIGEDGALSCTFEP (human); assay: indirect ELISA on antigen fragment, alanine scan
T8 construct: Alanine-scan variant of P12; the entry already carries the alanine; also called P12 alanine mutant (I to A)
T8 peptide: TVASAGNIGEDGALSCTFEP
Description: as §1

[11] = biological target: T9, antigen fragment P12 (TVASAGNIGEDGILSCTFEP) (human); assay: indirect ELISA on antigen fragment
T9 peptide: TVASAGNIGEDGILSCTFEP
Description: as §1

Kd [1]: 0.119 nM | koff [1]: 0.000114 s⁻¹ | kon [1]: 1.13e+06 M⁻¹ s⁻¹ | EC50 [2]: 0.067 nM
B1: chimeric antibody 2F8 (antibody, human IgG1, V domains shown)
VH: QVQLQQPGSVLVRPGASVKLSCKASGYTFTNSWMNWAKLRPGQGLEWIGGIYPNSGNIEYNEKFKGKATLTVDTSSSTAYMDLTSLTSEDSAVYYCARDSRFSYWGQGTLVTVSA
VL: DIVMTQSHKFMSTSVGDRVSITCKASQDVRTAVAWYQQKPGQSPKLLISSTSYRYTGVPDRFTGSGSGTDFTFIISSVQAEDLAVYYCQQHYSTPLTFGAGTKLELK
notes: also called ch-2F8

EC50 [2]: 0.068 nM
B2: chimeric antibody 1C9 (antibody, human IgG1, V domains shown)
VH: B1 VH with Y27D, N31T, S32Y, A37V, L39Q, P53L, N57S, I58S, T71S, T84S
VL: B1 VL with M11L, R30S, K45E, T51A, I74T, S93N, K103Q

Kd [3]: 0.25 nM | koff [3]: 0.000112 s⁻¹ | kon [3]: 447000 M⁻¹ s⁻¹ | EC50 [4]: 7.26 nM
B3: humanized anti-B7-H4 antibody hu2F8 (antibody, human IgG1, kappa, V domains shown)
VH: EVQLVQSGAEVKKPGASVKVSCKASGYTFTSSWMNWVRQAPGQRLEWMGGIYPNRGNIEYNEKFKGRVTLTVDTSASTAYMELSSLRSEDTAVYYCARDSRFSYWGQGTLVTVSS
VL: DIQMTQSPSSLSASVGDRVTITCKASQDVRTAVAWYQQKPGKAPKLLISSTSYRYTGVPSRFSGSGSGTDFTFTISSLQPEDIATYYCQQHYSTPLTFGGGTKVEIKR
notes: human IgG1 / kappa; also called humanized antibody 2F8

Kd [1]: 0.14 nM | koff [1]: 9.41e-05 s⁻¹ | kon [1]: 674000 M⁻¹ s⁻¹ | EC50 [2]: 0.063 nM
B4: chimeric antibody M1 (antibody, V domains shown)
VH: EIQLQQSGPELVMPGASVKVSCTASGYPFTTYNMYWVKQSHGKSLEWIAYIDPYNGGTSYNQKFKGKATLTVDKSSSTAYMHLNSLTSEDSAVYYCARSGFYDGYYAWYFDVWGAGTTVTVSS
VL: DVVMTQTPLSLPVSLGDQASISCRSSQSLVHSGGNTYLHWYLQKPGQSPKLLIYKVSNRFSGVPDRFSGSGSGTDFTLKISRVEAEDLGVYFCSQSTHVPLTFGAGTKLELK
notes: also called ch-M1

EC50 [2]: 0.071 nM
B5: chimeric antibody 2A10 (antibody, human IgG1, V domains shown)
VH: EVQLVESGGGFVKPGGSLKLSCAASGFTFSTFGMSWVRQTPDKRLEWVAGISPGGSYTYYPDTVKGRFTISRDNARNTLYLQMSSLRSEDSAMYYCTRGRSVWGTGTTVTVSS
VL: DILMTQSPSSMSVSLGDTVSITCHASQDISSNIGWLQQKPGKSFKGLIYHGTTLEDGIPSRFSGSGSGADYSLTISSLESEDFADYYCVQSAQFPWTFGGGTKLEIK

Kd [1]: 2.5 nM | koff [1]: 0.00259 s⁻¹ | kon [1]: 1.04e+06 M⁻¹ s⁻¹ | EC50 [2]: 0.056 nM
B6: chimeric antibody 2F4 (antibody, human IgG1, V domains shown)
VH: EVQLVESGGGLVKPGGSLKLSCAASGLTFSRYAMSWVRQTPEKRLEWVAGISSGGSYTYYSDTVKGRFTISRDNVRNTLYLQMSSLRSEDTAMYYCGREYGRDYWGQGTSVTVSS
VL: B5 VL with D28G, S30N, T53N, I58V, A69T, S91Y, W96R, K103T
notes: also called ch-2F4

EC50 [2]: 0.081 nM
B7: chimeric antibody 2G6 (antibody, human IgG1, V domains shown)
VH: EVQLVESGGGLVKPGGSLKLSCAASGFTFSRYGMSWVRQTPEKRLEWVAGINGGGSYTYYLDTVKGRFTISRDNSRNTLYLQMSSLRSEDTAMYYCVSQGSNYYFDYWGQGTTLTVSS
VL: B5 VL with L3R, D28G, G46A, T53N, I58V, S91Y, W96Y

Kd [1]: 68.8 nM | koff [1]: 0.00304 s⁻¹ | kon [1]: 44200 M⁻¹ s⁻¹ | EC50 [2]: 0.17 nM
B8: chimeric antibody 2F7 (antibody, human IgG1, V domains shown)
VH: EVQLVESGGGLVQPGGSLKLSCAASGFTFSNYYMSWVRQTPEKRLEWVAYVSSGGGSTYYSDSVKGRFTISRDNAKNTLYLQMSSLKPEDTAMYYCTRESYSQGNYFDYWGQGTTLTVSS
VL: DIVMTQSPATLSVTPGDRVSLSCRASQSISDYLHWYQQKSHESPRLLIKFASQSISGIPSRFSGSGSGSDFTLSINSVEPEDVGVYYCQNGHSFSLTFGAGTKLELK
notes: also called ch-2F7

EC50 [5]: 463 nM | EC50 [6]: 2010 nM | EC50 [7]: 986 nM | EC50 [8]: 662 nM | EC50 [9]: 1480 nM | EC50 [10]: 771 nM | EC50 [11]: 118 nM | Kd [3]: 0.757 nM | koff [3]: 0.000249 s⁻¹ | kon [3]: 329000 M⁻¹ s⁻¹ | EC50 [4]: 7.32 nM
B9: humanized anti-B7-H4 antibody hu2F7 (antibody, human IgG1, kappa, V domains shown)
VH: B8 VH with K19R, T40A, E42G, R44G, K87R, P88A, M93V, L116V
VL: EIVMTQSPATLSLSPGERATLSCRASQSISDYLHWYQQKPGQSPRLLIKFASQSISGIPARFSGSGSGTDFTLTISSLEPEDFAVYYCQNGHSFSLTFGQGTKLEIKR
notes: human IgG1 / kappa; also called humanized antibody 2F7

Source: patent publication US20210032347A1 (JIANGSU HANSOH PHARMACEUTICAL GROUP, published 2021)
